Results on two molecules are retold here after PMC3156282 (Bioorganic & medicinal chemistry letters, 2011).

The assay addresses Cdc42 (UniProt P60953 1-191). The assay is described as follows: other fluorescence titration.

Numbered stars: 1 amine (or outer) side, 2 acyl side, 3 side chain; on linkers, the order of the positions; unused ones are H or OH. Square brackets hold non-standard residues; d marks the D form. Side chains are listed from the residue outwards. 4‑DMNA = 4-N,N-dimethylamino-1,8-naphthalimido-alanine, CN(C)c1ccc2c3c(cccc13)C(=O)N(C[C@H](N[*:1])C(=O)[*:2])C2=O; 4‑DMN = 4-DMN: an environment-sensitive fluorophore; 9‑Å linker = not defined here

Sequence of Cdc42 (P60953 whole entry): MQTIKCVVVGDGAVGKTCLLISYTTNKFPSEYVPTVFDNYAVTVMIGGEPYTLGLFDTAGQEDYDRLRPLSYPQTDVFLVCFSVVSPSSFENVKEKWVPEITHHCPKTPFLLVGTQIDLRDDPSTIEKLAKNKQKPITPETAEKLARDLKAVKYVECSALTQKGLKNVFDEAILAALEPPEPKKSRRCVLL

As a reminder, the Kd is the free concentration of one partner at which half of the binding sites on the other are occupied at equilibrium, for simple one-to-one binding. Higher therefore signals weaker binding. As for GB1-KKKISKADIGAPSGFKHVSHVGWDPQNGFDVNNLDPDLRSLC([9‑Å linker-4‑DMN])SRAGIS-His6 (domain or fragment, UniProt P42768 230-277, looked up, not fully specified; reading uncertain) [4-DMN sensor 3 (GB1-WASP(230–277)-His6, Phe271Cys, Cys271 labeled with 4-DMN through a 9-Å linker)], the dissociation constant (Kd) came to 341 ± 22 nM.
GB1-KKKISKADIGAPSGFKHVSHVGWDPQNGFDVNNLDPDLRCL[4‑DMNA]SRAGIS-His6 (domain or fragment): the affinity, expressed as Kd, was 385 ± 9 nM.
